B1: ConjA1 (anti-DLK1 antibody HuBa-1-3d conjugated to drug linker 4) (antibody, V domains shown)
VH: QVQLVQSGAEVKKPGASVKVSCKGSGYTFTDYAMHWVRQAPGQGLEWIGVISTYYGNTNYNQKFKGKATMTVDKSTSTAYMELRSLRSDDTAVYYCARGGLREYYYAMDYWGQGTMVTVSS
VL: DIVMTQSPDSLAVSLGERATINCKSSQSLLNSSNQKNYLAWYQQKPGQPPKLLVYFASTRESGVPDRFSGSGSGTDFTLTISSLQAEDVAVYYCQQHYSTPPTFGQGTKLEIKR
modifications: PBD drug linker 4 (PL1601) attached through the remodelled glycan (GalNAc-N3) on Asn297; average DAR of 1.87
notes: also called anti-DLK1 ADC; ADC
B2: ConjA2 (anti-KAAG1 antibody 3A4 conjugated to drug linker 4 / PL1601) (antibody, human IgG1, kappa, V domains shown)
VH: QIQLVQSGAEVKKPGASVKVSCKASGYTFTDDYMSWVKQAPGQGLEWIGDINPYNGDTNYNQKFKGKATLTVDKSTSTAYMELSSLRSEDTAVYYCARDPGAMDYWGQGTLVTVSS
VL: DIVMTQTPLSLPVTPGEPASISCRSSQSLLHSNGNTYLEWYLQKPGQSPQLLIYTVSNRFSGVPDRFSGSGSGTDFTLKISRVEAEDVGVYYCFQGSHVPLTFGQGTKLEIKR
modifications: PBD drug linker PL1601 (4) attached through the remodelled glycan (GalNAc-N3) on Asn297; average DAR of 1.9

Tests used:
rat Dlk-1 = target: T1, rat Dlk-1 (rat, UniProt O70534 24-306, limits assumed); assay: not described (stated in the heading of the rat toxicology study)
T1 sequence (looked up): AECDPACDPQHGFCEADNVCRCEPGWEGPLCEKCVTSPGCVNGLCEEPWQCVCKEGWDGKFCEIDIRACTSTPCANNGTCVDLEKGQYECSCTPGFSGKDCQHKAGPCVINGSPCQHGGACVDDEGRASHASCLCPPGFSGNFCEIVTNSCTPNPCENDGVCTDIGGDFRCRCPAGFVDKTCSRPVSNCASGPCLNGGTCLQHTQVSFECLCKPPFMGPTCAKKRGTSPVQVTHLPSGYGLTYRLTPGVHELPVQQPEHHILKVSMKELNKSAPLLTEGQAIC

[1] = target: T2, Human KAAG1 (Kidney associated antigen 1) (human, UniProt Q9UBP8 1-84); assay: cell-based or functional assay
T2 sequence: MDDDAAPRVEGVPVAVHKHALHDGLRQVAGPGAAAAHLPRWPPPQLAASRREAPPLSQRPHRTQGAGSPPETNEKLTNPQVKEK

Binder	binding result (rat Dlk-1)	EC50, in vitro cytotoxicity (CellTiter-Glo) on MDA-MB-231 cells [1] [mg/L]	EC50, in vitro cytotoxicity (CellTiter-Glo) on SN12C cells [1] [mg/L]
B1	no binding	–	–
B2	–	0.226	0.0663
